# According to the supplement of paper PMC9170038:
# Assays:
# MS2 coat protein [1] = assay: apparent KD of MS2 coat protein; designed switch direction (-1 OFF switch, 1 ON switch): 1; higher = weaker reporter binding
# Outline: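 The apparent KD reported per design is the median over clusters of curve fits to normalised cluster fluorescence. The RNA switches were transcribed on Illumina chips by stalled E. coli RNA polymerase. SNAP-549-labelled MS2 coat protein was titrated from 0.7 or 1.5 nM, doubling up to 3 µM, in Tris-HCl pH 7.5 buffer containing KCl, MgCl2, BSA, DTT, tRNA and Tween-20, with no input, 200 uM small-molecule ligand, or an oligonucleotide input.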
# MS2 coat protein [2] = assay: apparent KD of MS2 coat protein; higher = weaker reporter binding; details: Eterna round: R107
# Outline: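 The designed RNA switches were transcribed on-chip from Illumina sequencing clusters. In 100 mM Tris-HCl pH 7.5, 80 mM KCl and 4 mM MgCl2, without or with constant ligand, they were titrated with SNAP-549-labelled MS2 coat protein from 0.7 or 1.5 nM to 3 µM in twofold steps. Apparent KD is the per-design median of normalised cluster binding-curve fits.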
# [3] = input ligand: microRNA oligo, concentration not stated
# [4] = input ligand: theophylline 20 uM
# [5] = input ligand: tryptophan 2.4 mM
# [6] = input ligand: theophylline 2 mM
Sequence,apparent KD of MS2 coat protein (MS2 coat protein [1]; input ligand: FMN 200 uM) [nM],apparent KD of MS2 coat protein (MS2 coat protein [1]; [3]) [nM],apparent KD of MS2 coat protein (MS2 coat protein [1]; input ligand: none) [nM],"apparent KD of MS2 coat protein (MS2 coat protein [1]; Eterna round: R95, input ligand: FMN 200 uM) [nM]","apparent KD of MS2 coat protein (MS2 coat protein [1]; Eterna round: R95, input ligand: microRNA oligo, concentration not stated) [nM]","apparent KD of MS2 coat protein (MS2 coat protein [1]; Eterna round: R95, input ligand: none) [nM]",apparent KD of MS2 coat protein (MS2 coat protein [2]; input ligand: arginine 13.2 mM) [nM],apparent KD of MS2 coat protein (MS2 coat protein [2]; [4]) [nM],apparent KD of MS2 coat protein (MS2 coat protein [2]; [5]) [nM],apparent KD of MS2 coat protein (MS2 coat protein [2]; input ligand: none) [nM],apparent KD of MS2 coat protein (MS2 coat protein [2]; [6]) [nM]
"AAAACAUGACGAGGAUAUGGUACAUGAGGAUCACCCAUGUAUGUACCACGACGCGUACGUCGAAUCCAGAAGGCGUCGUGAAAA [Mat - Same State NG 2 - JL mod - D19] (Eterna round: R96, puzzle: Same State NG 2)",20.3,68.5,74.1,,,,,,,,
AAAAUACAUGAGGAUCACCCAUGUAGAAACUACACAGGAUAUCGGACGGCUGUAGCCGAACGAGAAGGGUGAACCC [Uszadi] (puzzle: Same State 1),,,,205,228,313,,,,,
"AAAAUGGCAUGUUACAUGAGGAUCACCCAUGUGCCGUCAACUGAGGAUAUGGUGCUGUAGAAGAAUCAGAAGGUAGUCAUUUAA [AK SSNG3-V2-27] (Eterna round: R96, puzzle: Same State NG 3)",22.6,15.8,27,,,,,,,,
UGGUUUGUGAUGGAUACCAGCAGAGAAAACGUUUAUCCUAACAUGAGGAUCACCCAUGUAUGCCCUUGGCAGCUGUUGUGGGCUA [8.S],,,,,,,27.5,37.4,28.8,,
UGUAAUGGGAUCAACCCAUGAGAGUCUGAAGGAGCGAUCGUAAGAUCAGGUAGGUCGCGGGAGACAUGAGGAUCACCCAUGUAUA [#23 Exclusion - Arginine A],,,,,,,27.2,46.3,39.7,41,44.3
UGUACCUAGUCGGCCGCCACUCCAAAAGGAGAGGAUCACCCUCCUAAACGAGUCAAAGACUCGAGGAGGACCGGGACUAGGUACU [Palindromic MS2 #AlternativeMS2 #Palindrome #StaticStem],,,,,,,30,41.8,14,30.4,33.9
UGUACUAUGUGAAGGAGCGAGAAUCCUACAUGAGGAUCACCCAUGUAAGAGCGAAAGCUCACUCAGGUAGGUCGCACAUAGUACU [#17 Same State - Arginine B],,,,,,,31.7,44.1,48.8,42.9,43.7
UGUAUGGACUGAAGGAGCGCCUCAAAAUAACAUGAGGAUCACCCAUGUAAGGCGAAAGCCGGGCAGGUAGGUCGCAGUCCAUACU [ArgBX 3 #StaticStem #MS2Late],,,,,,,15.8,16.1,12.7,11.2,17
UGUAUGGACUGAAGGAGCGCCUCAAAAUAACAUGAGGAUCACCCAUGUGGCGAAAGCCAAGGGCAGGUAGGUCGCAGUCCAUACU [ArgBX 4 #StaticStem #MS2Late],,,,,,,27.3,34.2,32,26.4,32.9
UGUAUGGACUGAAGGAGCGGGUAAUAAAUCUGAGGAUCACCCAGGUAAUAGGCGAAAGCCGCCCAGGUAGGUCGCAGUCCAUACU,,,,,,,13.3,27.5,23.1,14.7,18.8
UGUAUGGACUGAAGGAGCGGGUUGAUAACAUGAGGAUCACCCAUGUAAAAGGCGAAAGCCGCCCAGGUAGGUCGCAGUCCAUACU,,,,,,,4.19,19.5,10.9,10.1,13.1
UGUAUGUGAUCUGAUACCAGAGAUGAUAACCUGAGGAUCACCCUGGUAAGGCGAAAGCCACUCCCUUGGCAGCAGAUCGCAUACU,,,,,,,48.3,40.7,39,34.4,26.3
UGUAUGUGAUCUGAUACCAGCUAAUAAGCUUGAGGAUCACCCAAGUGGAGCGGAAACGCAGGCCCUUGGCAGCAGAUCGCAUACU [Denovo 9 #StaticStem #AlternativeMS2],,,,,,,54.6,34.4,70.7,76.4,11.7
UGUAUGUGAUCUGAUACCAGUCCAACUGGUAAAGCACGAGGAUCACCCGUGUAAAAUUGGGACCCUUGGCAGCAGAUCGCAUACU,,,,,,,96.8,352,115,228,57.8
UGUAUGUGAUUUGAUACCAGACCAGCUGGUGGUACAUGAGGAUCACCCAUGUAGGUUUGGGUCCCUUGGCAGCAAAUCGCAUACU [SSTheo B #24],,,,,,,54.6,64.5,44,,
UGUCAUGGAAACAUGACUGGUUCUACCGGUCGAGGACCGGUACGGCCGCCACUCGGUUGGUGGCACAUGAGGAUCACCCAUGUUA [SS Tryp A #13],,,,,,,28.5,51.8,29.7,30.3,44.7
UGUGUAAUUGUCUGGUAGAUUUAUUUUUUUCGAGGACCGGUACGGCCGCCACUCGUUAUUUACAUGAGGAUCACCCAUGUUAGCU [JR_ExcTryptoA_Sub007],,,,,,,12.4,22.3,,,15.5
UUACAUGAGGAUCACCCAUGUUUACUAUGUCGAGGACCGGUACGGCCGCCACUCGUAUUUGAUGAUUUAGGUGCCACAAGUUAUU [JR_Nu_ExcTryptoA_Sub024],,,,,,,16.1,26.6,,,22.6
UUAGAUAUGACAGAUACCAGCGUGUUGUAGAACAUGAGGAUCACCCAUGUAGUGAUCAAGCGCCCUUGGCAGCUGGUAUGUUUGG [7.X],,,,,,,61.5,277,179,,
UUAUGCAGGUCGGCCGCCACUACACACAUGAGGAUCACCCAUGUAGUUACUGGGUGAAGUGGCAGUAGGACCGGGACCUGCACAC [Brourdmod14],,,,,,,148,403,891,470,823
UUAUGCAGGUCGGCCGCCACUACACACAUGAGGAUCACCCAUGUAGUUACUGGGUGAAGUGGCAGUAGGACCGGGACCUGCACAU [Brourdmod13],,,,,,,52,739,465,479,850
UUGGUAGGACAGCUCAUAUAAGCAUGUGAUACCAGCUAGAAAACUAGCCCUUGGCAGCACUUUACAUGAGGAUCACCCAUGUCCC [EThA NP+V+V2 #2 +-Same Structure],,,,,,,68.8,258,145,,
UUGUGGCGCUCGGCCGCCACUCCGACAUGAGGAUCACCCAUGUUCUACAUGAGGAUCACCCAUGUGAGGACCGGGAGACACUUCC [Exclusion Tryptophan B GF13],,,,,,,53,109,,,116
UUUAACGGGCACGAUACCAGCGACAUGAGGAUCACCCAUGUAAACGCGGUGACGGUCUGUUGCCCUUGGCAGCGUGCAAAAUAAU [Zaquarar],,,,,,,43,157,48.5,67.6,94.3
UUUAUUAUUGACUCGUUAUUGUUUUUGGAUCGAGGACCGGUACGGCCGCCACUCGUGAUAUACAUGAGGAUCACCCAUGUUAGCA [JR_Nu_SSTryptoA_Sub020],,,,,,,19.3,22,,,17.2
UUUGGCGGCGAUCUGGGUUUACCAGAUCGGCGAGGACCGGUACGGCCGCCACUCGUGUUUCUUUGACAUGAGGAUCACCCAUGUA [whbob_SS_trypto A_f3],,,,,,,34.9,74.6,,,102
UUUUAAUGUGCGGAUACCAGCCGUACAUGAGGAUCACCCAUGUCGCUGUUGAGCAUCGUCGGCCCUUGGCAGCUGUGUGUAGUUG [#27 Same State - Theophylline B],,,,,,,26.2,62.7,42.3,51.9,66
